Source: the supplement of paper PMC9112550, “Optimization of the antimicrobial peptide Bac7 by deep mutational scanning” (BMC Biology, 2022)

System: Escherichia coli TOP10
Experiment: shrunken log2 fold change of peptide-encoding DNA abundance (4.5 h post-induction vs induction); higher = less antimicrobial activity (less host growth inhibition)
Conditions: time post-induction: 4.5 h; library: site-saturation at positions 5, 18, 19, 20
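Note: peptides expressed intracellularly from a pBAD plasmid library in pooled LB shake-flask culture, induced with 0.3% L-arabinose, DNA abundance read by NGS, three biological replicates, DESeq2 with apeglm shrinkage.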

RRIRFRPPRLPRPRPRPKSPPRP
shrunken log2 fold change: -0.143

RRIRSRPPRLPRPRPRPHMIPRP
shrunken log2 fold change: -0.961

RRIRCRPPRLPRPRPRPQEEPRP
shrunken log2 fold change: -0.0124

RRIRTRPPRLPRPRPRPPHPPRP
shrunken log2 fold change: 0.255

RRIRSRPPRLPRPRPRPQKHPRP
shrunken log2 fold change: -0.106

RRIRWRPPRLPRPRPRPSHGPRP
shrunken log2 fold change: -0.583

RRIRIRPPRLPRPRPRPSVNPRP
shrunken log2 fold change: -0.225

RRIRGRPPRLPRPRPRPKNWPRP
shrunken log2 fold change: 0.466

RRIRSRPPRLPRPRPRPGAKPRP
shrunken log2 fold change: 0.513

RRIRMRPPRLPRPRPRPIITPRP
shrunken log2 fold change: -0.512

RRIRHRPPRLPRPRPRPDRSPRP
shrunken log2 fold change: -0.0222

RRIRTRPPRLPRPRPRPEQKPRP
shrunken log2 fold change: 0.154

RRIRCRPPRLPRPRPRPRMNPRP
shrunken log2 fold change: -0.096

RRIRIRPPRLPRPRPRPQCIPRP
shrunken log2 fold change: -0.37

RRIRPRPPRLPRPRPRPKGKPRP
shrunken log2 fold change: -0.135

RRIRERPPRLPRPRPRPFISPRP
shrunken log2 fold change: -0.0623

RRIRKRPPRLPRPRPRPDSVPRP
shrunken log2 fold change: 0.0996

RRIRGRPPRLPRPRPRPLHRPRP
shrunken log2 fold change: 0.187

RRIRPRPPRLPRPRPRPGWDPRP
shrunken log2 fold change: 0.011

RRIRCRPPRLPRPRPRPEYQPRP
shrunken log2 fold change: 0.123

RRIRFRPPRLPRPRPRPQKFPRP
shrunken log2 fold change: -0.259

RRIRLRPPRLPRPRPRPNRIPRP
shrunken log2 fold change: -0.0157

RRIRRRPPRLPRPRPRPWFDPRP
shrunken log2 fold change: -0.064

RRIRERPPRLPRPRPRPDKVPRP
shrunken log2 fold change: -0.121

RRIRIRPPRLPRPRPRPCAMPRP
shrunken log2 fold change: -0.424

RRIRRRPPRLPRPRPRPVQQPRP
shrunken log2 fold change: 0.213

RRIRQRPPRLPRPRPRPQNHPRP
shrunken log2 fold change: -0.481

RRIRFRPPRLPRPRPRPFVQPRP
shrunken log2 fold change: -0.694

RRIRKRPPRLPRPRPRPNNSPRP
shrunken log2 fold change: -0.371

RRIRIRPPRLPRPRPRPMKYPRP
shrunken log2 fold change: -0.104

RRIRYRPPRLPRPRPRPTFCPRP
shrunken log2 fold change: 0.115

RRIRNRPPRLPRPRPRPAYTPRP
shrunken log2 fold change: -0.262

RRIRERPPRLPRPRPRPKQWPRP
shrunken log2 fold change: 0.0081

RRIRYRPPRLPRPRPRPCAKPRP
shrunken log2 fold change: -0.374

RRIRSRPPRLPRPRPRPSWWPRP
shrunken log2 fold change: 0.0841

RRIRERPPRLPRPRPRPARQPRP
shrunken log2 fold change: 0.0428

RRIRARPPRLPRPRPRPWKDPRP
shrunken log2 fold change: -0.0732

RRIRTRPPRLPRPRPRPFWLPRP
shrunken log2 fold change: -0.0299

RRIRCRPPRLPRPRPRPFMVPRP
shrunken log2 fold change: -0.502

RRIRCRPPRLPRPRPRPDSYPRP
shrunken log2 fold change: -0.286

RRIRMRPPRLPRPRPRPNADPRP
shrunken log2 fold change: 2.51

RRIRNRPPRLPRPRPRPKMKPRP
shrunken log2 fold change: -0.286

RRIRLRPPRLPRPRPRPEMPPRP
shrunken log2 fold change: 0.365

RRIRERPPRLPRPRPRPRRAPRP
shrunken log2 fold change: 0.566

RRIRWRPPRLPRPRPRPECIPRP
shrunken log2 fold change: 0.872

RRIRNRPPRLPRPRPRPQWMPRP
shrunken log2 fold change: -0.0995

RRIRGRPPRLPRPRPRPWMPPRP
shrunken log2 fold change: 0.105

RRIRERPPRLPRPRPRPETMPRP
shrunken log2 fold change: 0.0664

RRIRHRPPRLPRPRPRPLICPRP
shrunken log2 fold change: -0.493

RRIRCRPPRLPRPRPRPLFIPRP
shrunken log2 fold change: -0.51

RRIRIRPPRLPRPRPRPGTTPRP
shrunken log2 fold change: 0.252

RRIRTRPPRLPRPRPRPLMDPRP
shrunken log2 fold change: -0.0405

RRIRSRPPRLPRPRPRPFEYPRP
shrunken log2 fold change: -0.115

RRIRDRPPRLPRPRPRPCIMPRP
shrunken log2 fold change: 0.0282

RRIRMRPPRLPRPRPRPGKWPRP
shrunken log2 fold change: 0.204

RRIRPRPPRLPRPRPRPWIMPRP
shrunken log2 fold change: -0.236

RRIRGRPPRLPRPRPRPQVFPRP
shrunken log2 fold change: 0.0336

RRIRIRPPRLPRPRPRPKGLPRP
shrunken log2 fold change: 0.121

RRIRWRPPRLPRPRPRPSMPPRP
shrunken log2 fold change: -0.423

RRIRHRPPRLPRPRPRPYAWPRP
shrunken log2 fold change: -0.0931

RRIRVRPPRLPRPRPRPYNSPRP
shrunken log2 fold change: -0.0974

RRIRWRPPRLPRPRPRPRCFPRP
shrunken log2 fold change: 0.398

RRIRKRPPRLPRPRPRPSPAPRP
shrunken log2 fold change: 0.478

RRIRMRPPRLPRPRPRPNQWPRP
shrunken log2 fold change: 2.38

RRIRTRPPRLPRPRPRPRPMPRP
shrunken log2 fold change: 0.184

RRIRNRPPRLPRPRPRPIWPPRP
shrunken log2 fold change: 0.152

RRIRFRPPRLPRPRPRPIDFPRP
shrunken log2 fold change: -0.0919

RRIRGRPPRLPRPRPRPLGSPRP
shrunken log2 fold change: 0.338

RRIRQRPPRLPRPRPRPDSDPRP
shrunken log2 fold change: -0.159

RRIRPRPPRLPRPRPRPGCSPRP
shrunken log2 fold change: 0.266

RRIRKRPPRLPRPRPRPYLLPRP
shrunken log2 fold change: -0.525

RRIRLRPPRLPRPRPRPYWQPRP
shrunken log2 fold change: 0.0322

RRIRDRPPRLPRPRPRPDHVPRP
shrunken log2 fold change: -0.012

RRIRLRPPRLPRPRPRPPRYPRP
shrunken log2 fold change: 0.178

RRIRGRPPRLPRPRPRPWLIPRP
shrunken log2 fold change: -0.192

RRIRKRPPRLPRPRPRPWNAPRP
shrunken log2 fold change: 0.0384

RRIRYRPPRLPRPRPRPISNPRP
shrunken log2 fold change: -0.191

RRIRFRPPRLPRPRPRPRMDPRP
shrunken log2 fold change: -0.0641

RRIRERPPRLPRPRPRPEWIPRP
shrunken log2 fold change: 0.064

RRIRSRPPRLPRPRPRPLCHPRP
shrunken log2 fold change: -0.157

RRIRRRPPRLPRPRPRPYHTPRP
shrunken log2 fold change: -1.28

RRIRLRPPRLPRPRPRPQGKPRP
shrunken log2 fold change: 0.0467

RRIRWRPPRLPRPRPRPFLCPRP
shrunken log2 fold change: -0.139

RRIRCRPPRLPRPRPRPACNPRP
shrunken log2 fold change: -0.0286

RRIRWRPPRLPRPRPRPFGMPRP
shrunken log2 fold change: -0.283

RRIRCRPPRLPRPRPRPDLLPRP
shrunken log2 fold change: -0.393

RRIRERPPRLPRPRPRPYLWPRP
shrunken log2 fold change: -0.431

RRIRRRPPRLPRPRPRPHNIPRP
shrunken log2 fold change: -0.127

RRIRVRPPRLPRPRPRPRTRPRP
shrunken log2 fold change: 0.339

RRIRVRPPRLPRPRPRPCVKPRP
shrunken log2 fold change: -0.657

RRIRERPPRLPRPRPRPKQPPRP
shrunken log2 fold change: 0.236

RRIRQRPPRLPRPRPRPWTEPRP
shrunken log2 fold change: 0.0355

RRIRIRPPRLPRPRPRPAHYPRP
shrunken log2 fold change: -0.153

RRIRFRPPRLPRPRPRPTLNPRP
shrunken log2 fold change: -0.254

RRIRSRPPRLPRPRPRPWYPPRP
shrunken log2 fold change: -0.301

RRIRFRPPRLPRPRPRPPFGPRP
shrunken log2 fold change: -0.00994

RRIRWRPPRLPRPRPRPMAYPRP
shrunken log2 fold change: -0.0846

RRIRSRPPRLPRPRPRPFLHPRP
shrunken log2 fold change: -0.174

RRIRARPPRLPRPRPRPRCTPRP
shrunken log2 fold change: 0.392

RRIRARPPRLPRPRPRPYHWPRP
shrunken log2 fold change: -0.0767

RRIRGRPPRLPRPRPRPTCDPRP
shrunken log2 fold change: 0.432

RRIRERPPRLPRPRPRPCGVPRP
shrunken log2 fold change: 0.0484

RRIRKRPPRLPRPRPRPVGEPRP
shrunken log2 fold change: 1.18

RRIRLRPPRLPRPRPRPCLPPRP
shrunken log2 fold change: -0.0626

RRIRSRPPRLPRPRPRPPCNPRP
shrunken log2 fold change: -0.21

RRIRLRPPRLPRPRPRPDENPRP
shrunken log2 fold change: 0.087

RRIRNRPPRLPRPRPRPEKEPRP
shrunken log2 fold change: -0.159

RRIRPRPPRLPRPRPRPVFTPRP
shrunken log2 fold change: -0.0534

RRIRDRPPRLPRPRPRPHMIPRP
shrunken log2 fold change: -0.125
